Numbering of substitutions follows the chain as printed. Numbers in names are those of the source. Where “and” joins values, the source holds several entries; their conditions need not be identical. Equal entries are not always repeated.
B1: L1P17A1: FABP probe, substitutions Y14I L72W vs SEQ ID NO: 2 (protein, listed as Rattus norvegicus)
chain: AFDGTWKVDRNENIEKFMEKMGINVVKRKLGAHDNLKLTITQEGNKFTVKESSNFRNIDVVFELGVDFAYSWADGTELTGTWTMEGNKLVGKFKRVDNGKELIAVREISGNELIQTYTYEGVEAKRIFKKE
modifications: PEPTIDE (1)...(131) wild-type rat intestinal fatty acid binding protein
B2: 38Y 74F 72A (protein, listed as Rattus norvegicus)
chain: B1 chain with I14Y, L38Y, W72A, D74F
modifications: PEPTIDE (1)...(131) wild-type rat intestinal fatty acid binding protein
B3: 72S 73W 74E (protein, listed as Rattus norvegicus)
chain: B1 chain with I14Y, W72S, A73W, D74E
modifications: PEPTIDE (1)...(131) wild-type rat intestinal fatty acid binding protein
B4: 72A 73W 74E (protein, listed as Rattus norvegicus)
chain: B1 chain with I14Y, W72A, A73W, D74E
modifications: PEPTIDE (1)...(131) wild-type rat intestinal fatty acid binding protein
B5: 18L 73V 72A (protein, listed as Rattus norvegicus)
chain: B1 chain with I14Y, M18L, W72A, A73V
modifications: PEPTIDE (1)...(131) wild-type rat intestinal fatty acid binding protein
B6: 60T 104T 115W 74F 72A (protein, listed as Rattus norvegicus)
chain: B1 chain with I14Y, V60T, W72A, D74F, A104T, Q115W
modifications: PEPTIDE (1)...(131) wild-type rat intestinal fatty acid binding protein
B7: 72A 73W 74S (protein, listed as Rattus norvegicus)
chain: B1 chain with I14Y, W72A, A73W, D74S
modifications: PEPTIDE (1)...(131) wild-type rat intestinal fatty acid binding protein
B8: 72S 73W 74N (protein, listed as Rattus norvegicus)
chain: B1 chain with I14Y, W72S, A73W, D74N
modifications: PEPTIDE (1)...(131) wild-type rat intestinal fatty acid binding protein
B9: 72S 73W 74S (protein, listed as Rattus norvegicus)
chain: B1 chain with I14Y, W72S, A73W, D74S
modifications: PEPTIDE (1)...(131) wild-type rat intestinal fatty acid binding protein
B10: 72T 73W 74S (protein, listed as Rattus norvegicus)
chain: B1 chain with I14Y, W72T, A73W, D74S
modifications: PEPTIDE (1)...(131) wild-type rat intestinal fatty acid binding protein
B11: 73W 74I (protein, listed as Rattus norvegicus)
chain: B1 chain with I14Y, W72L, A73W, D74I
modifications: PEPTIDE (1)...(131) wild-type rat intestinal fatty acid binding protein
B12: 73W 74T (protein, listed as Rattus norvegicus)
chain: B1 chain with I14Y, W72L, A73W, D74T
modifications: PEPTIDE (1)...(131) wild-type rat intestinal fatty acid binding protein
B13: 72T 73W 74E (protein, listed as Rattus norvegicus)
chain: B1 chain with I14Y, W72T, A73W, D74E
modifications: PEPTIDE (1)...(131) wild-type rat intestinal fatty acid binding protein
B14: 73W 72A 74F (protein, listed as Rattus norvegicus)
chain: B1 chain with I14Y, W72A, A73W, D74F
modifications: PEPTIDE (1)...(131) wild-type rat intestinal fatty acid binding protein
B15: 72G 73W 74E (protein, listed as Rattus norvegicus)
chain: B1 chain with I14Y, W72G, A73W, D74E
modifications: PEPTIDE (1)...(131) wild-type rat intestinal fatty acid binding protein
B16: 21F 78I 102F 72A (protein, listed as Rattus norvegicus)
chain: B1 chain with I14Y, M21F, W72A, L78I, L102F
modifications: PEPTIDE (1)...(131) wild-type rat intestinal fatty acid binding protein
B17: 72V 73L 74W (protein, listed as Rattus norvegicus)
chain: B1 chain with I14Y, W72V, A73L, D74W
modifications: PEPTIDE (1)...(131) wild-type rat intestinal fatty acid binding protein

Assay: Probe fluorescence ratio response to arachidonic acid relative to ADIFAB2
Type: binding
Settings: Table 4; Arachidonic acid
Summary of the method: (§1)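 Each fatty acid's response was expressed relative to ADIFAB2, the rI-FABP-L72A probe, as ΔR/ΔRreference. ΔR is the change in the background-corrected two-wavelength intensity ratio R=Fλ1/Fλ2 from its analyte-free baseline R0. Emission was read near about 420-480 nm for unbound and about 495-580 nm for FFA-bound probe.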

| Molecule | ΔR/DRAΔ2 AA |
| --- | --- |
| B1 | −0.8 |

Same assay, conditions: arachidonic acid; response relative to ADIFAB2

| Molecule | DR/DR AA |
| --- | --- |
| B2 | 0.605 |
| B3 | 3.751 |
| B4 | 4.093 |
| B5 | 0.615 and 0.475 |
| B6 | 0.873 |
| B7 | 3.211 |
| B8 | 3.770 |
| B9 | 3.545 |
| B10 | 4.129 |
| B11 | 0.757 |
| B12 | 1.456 |
| B13 | 2.442 |
| B14 | 3.378 |
| B15 | 4.229 |
| B16 | 4.836 |
| B17 | 0.500 |

Assay: Probe fluorescence ratio response to oleic acid relative to ADIFAB2
Type: binding
Settings: Table 4
Summary of the method: as §1

| Molecule | ΔR/DRAΔ2 OA |
| --- | --- |
| B1 | −1.2 |

Same assay, conditions: response relative to ADIFAB2

| Molecule | DR/DR OA |
| --- | --- |
| B2 | 0.646 |
| B3 | 3.212 |
| B4 | 3.277 |
| B6 | 1.149 |
| B7 | 3.155 |
| B8 | 3.490 |
| B9 | 2.863 |
| B10 | 4.177 |
| B11 | 0.912 |
| B12 | 1.902 |
| B13 | 2.200 |
| B14 | 3.255 |
| B15 | 2.755 |
| B16 | 3.312 |
| B17 | 0.648 |

Assay: Probe fluorescence ratio response to stearic acid relative to ADIFAB2
Type: binding
Settings: response relative to ADIFAB2
Source text: (§2) In an alternate preferred embodiment, the protein is rI-FABP that has Ala substituted for Leu at position 72 (rI-FABP-L72A) with the resulting probe named ADIFAB2. […] Other probes useful in embodiments of the invention are shown in Tables 1-6 and are also described in U.S. application Ser. No. 11/085,792, filed Mar. 21, 2005 which is incorporated herein by reference. The indicated substitutions are with reference to the ADIFAB protein of SEQ ID NO: 2.
(§3) ADIFAB2 also has an altered spectral response, making it especially useful for measurements of FFAu in blood samples (Apple et al, Clinical Proteomics, (2004) 1:41-44, U.S. patent application Ser. No. 10/670,958). The wavelengths at the maximum intensities emitted by these fluorescently-labeled I-FABP's in the absence of FFA is about 420 to 480 nm. The emission wavelengths at the maximum intensities emitted by these fluorescently-labeled I-FABP's with FFA bound are between about 495 to 580 nm. Experiments typically involve measuring the fluorescence response within both emission maxima or at wavelengths for which the effect of interfering molecules such as hemoglobin can be eliminated as described in U.S. application Ser. No. 10/670958 and PCT/US2004/030521 and the calculation of the ratio ‘R’ of the two fluorescence intensities. The baseline value for this ratio, measured in the absence of analyte, is designated R0.
(§4) The intensity ratio (“R” value) is determined as follows. The ratio is calculated using the following formula: R=Fλ1/Fλ2 wherein, Fλ1 is the measured fluorescence intensities (intensity of sample with probe present minus intensity of sample without probe present) at wavelength 1 and Fλ2 is the measured fluorescence intensities (intensity of sample with probe present minus intensity of sample without probe present) at wavelength 2. Then, for a given probe, ΔR, the difference in R value between the measurement in the presence of the test compound (agent) and in the absence of the test compound (agent), is calculated as follows: ΔR=R+agent−R0 In some embodiments, the ΔR value may then be compared to some reference, for example, an agent with a known affinity for a given probe, by ΔR/ΔRreference. Measurements of fluorescence intensities are obtained using standard techniques.

| Molecule | DR/DR SA |
| --- | --- |
| B2 | 0.362 |
| B3 | 1.285 |
| B4 | 1.289 |
| B5 | 0.359 and 0.427 |
| B6 | 0.633 |
| B7 | 1.095 |
| B8 | 1.255 |
| B9 | 1.106 |
| B10 | 1.620 |
| B11 | 0.423 |
| B12 | 0.726 |
| B13 | 0.877 |
| B14 | 1.485 |
| B15 | 0.955 |
| B16 | 2.367 |
| B17 | 0.348 |

Assay: Probe fluorescence ratio response to linoleic acid relative to ADIFAB2
Type: binding
Settings: Table 4
Summary of the method: as §1

| Molecule | ΔR/DRAΔ2 LA |
| --- | --- |
| B1 | −1.0 |

Same assay, conditions: response relative to ADIFAB2

| Molecule | DR/DR LA |
| --- | --- |
| B2 | 0.926 |
| B3 | 4.079 |
| B4 | 4.686 |
| B6 | 1.609 |
| B7 | 3.806 |
| B8 | 3.977 |
| B9 | 3.787 |
| B10 | 4.612 |
| B11 | 1.130 |
| B12 | 2.480 |
| B13 | 3.254 |
| B14 | 3.718 |
| B15 | 5.045 |
| B16 | 2.872 |
| B17 | 1.225 |

Assay: Probe fluorescence ratio response to linolenic acid relative to ADIFAB2
Type: binding
Settings: Table 4
Summary of the method: as §1

| Molecule | ΔR/DRAΔ2 LNA |
| --- | --- |
| B1 | −0.9 |

Same assay, conditions: response relative to ADIFAB2

| Molecule | DR/DR LNA |
| --- | --- |
| B2 | 1.166 |
| B3 | 4.799 |
| B4 | 5.422 |
| B6 | 2.017 |
| B7 | 4.401 |
| B8 | 4.220 |
| B9 | 4.147 |
| B10 | 4.826 |
| B11 | 1.325 |
| B12 | 3.286 |
| B13 | 3.818 |
| B14 | 3.875 |
| B15 | 5.501 |
| B16 | 3.006 |
| B17 | 1.209 |

Assay: Probe fluorescence ratio response to palmitoleic acid relative to ADIFAB2
Type: binding
Settings: response relative to ADIFAB2
Source text: as §2, §3, §4

| Molecule | DR/DR POA |
| --- | --- |
| B2 | 1.514 |
| B3 | 6.109 |
| B4 | 6.615 |
| B6 | 2.511 |
| B7 | 4.864 |
| B8 | 4.867 |
| B9 | 4.656 |
| B10 | 5.826 |
| B11 | 2.697 |
| B12 | 5.818 |
| B13 | 5.353 |
| B14 | 5.256 |
| B15 | 6.069 |
| B16 | 2.788 |
| B17 | 1.710 |

Assay: Probe fluorescence ratio response to palmitic acid relative to ADIFAB2
Type: binding
Settings: Table 4
Summary of the method: as §1

| Molecule | ΔR/DRAΔ2 PA |
| --- | --- |
| B1 | −0.4 |

Same assay, conditions: response relative to ADIFAB2

| Molecule | DR/DR PA |
| --- | --- |
| B2 | 1.397 |
| B3 | 4.210 |
| B4 | 4.937 |
| B6 | 1.920 |
| B7 | 4.039 |
| B8 | 3.333 |
| B9 | 3.536 |
| B10 | 4.155 |
| B11 | 1.884 |
| B12 | 3.883 |
| B13 | 3.842 |
| B14 | 3.264 |
| B15 | 3.944 |
| B16 | 2.383 |
| B17 | 1.276 |
